B1: Hsp47-HT, P19324 Y353A (protein)
chain: AEVKKPLEAAAPGTAEKLSSKATTLAERSTGLAFSLYQAMAKDQAVENILLSPLVVASSLGLVSLGGKATTASQAKAVLSAEKLRDEEVHTGLGELLRSLSNSTARNVTWKLGSRLYGPSSVSFADDFVRSSKQHYNCEHSKINFRDKRSALQSINEWASQTTDGKLPEVTKDVERTDGALLVNAMFFKPHWDEKFHHKMVDNRGFMVTRSYTVGVTMMHRTGLYNYYDDEKEKLQMVEMPLAHKLSSLIILMPHHVEPLERLEKLLTKEQLKAWMGKMQKKAVAISLPKGVVEVTHDLQKHLAGLGLTEAIDKNKADLSRMSGKKDLYLASVFHATAFEWDTEGNPFDQDIAGREELRSPKLFYADHPFIFLVRDNQSGSLLFIGRLVRPKGDKMRDEL
B2: Hsp47-HT, P19324 R355A (protein)
chain: AEVKKPLEAAAPGTAEKLSSKATTLAERSTGLAFSLYQAMAKDQAVENILLSPLVVASSLGLVSLGGKATTASQAKAVLSAEKLRDEEVHTGLGELLRSLSNSTARNVTWKLGSRLYGPSSVSFADDFVRSSKQHYNCEHSKINFRDKRSALQSINEWASQTTDGKLPEVTKDVERTDGALLVNAMFFKPHWDEKFHHKMVDNRGFMVTRSYTVGVTMMHRTGLYNYYDDEKEKLQMVEMPLAHKLSSLIILMPHHVEPLERLEKLLTKEQLKAWMGKMQKKAVAISLPKGVVEVTHDLQKHLAGLGLTEAIDKNKADLSRMSGKKDLYLASVFHATAFEWDTEGNPFDQDIYGAEELRSPKLFYADHPFIFLVRDNQSGSLLFIGRLVRPKGDKMRDEL
B3: Hsp47-HT, P19324 Q350A (protein)
chain: AEVKKPLEAAAPGTAEKLSSKATTLAERSTGLAFSLYQAMAKDQAVENILLSPLVVASSLGLVSLGGKATTASQAKAVLSAEKLRDEEVHTGLGELLRSLSNSTARNVTWKLGSRLYGPSSVSFADDFVRSSKQHYNCEHSKINFRDKRSALQSINEWASQTTDGKLPEVTKDVERTDGALLVNAMFFKPHWDEKFHHKMVDNRGFMVTRSYTVGVTMMHRTGLYNYYDDEKEKLQMVEMPLAHKLSSLIILMPHHVEPLERLEKLLTKEQLKAWMGKMQKKAVAISLPKGVVEVTHDLQKHLAGLGLTEAIDKNKADLSRMSGKKDLYLASVFHATAFEWDTEGNPFDADIYGREELRSPKLFYADHPFIFLVRDNQSGSLLFIGRLVRPKGDKMRDEL
B4: Hsp47-HT, P19324 D351A (protein)
chain: AEVKKPLEAAAPGTAEKLSSKATTLAERSTGLAFSLYQAMAKDQAVENILLSPLVVASSLGLVSLGGKATTASQAKAVLSAEKLRDEEVHTGLGELLRSLSNSTARNVTWKLGSRLYGPSSVSFADDFVRSSKQHYNCEHSKINFRDKRSALQSINEWASQTTDGKLPEVTKDVERTDGALLVNAMFFKPHWDEKFHHKMVDNRGFMVTRSYTVGVTMMHRTGLYNYYDDEKEKLQMVEMPLAHKLSSLIILMPHHVEPLERLEKLLTKEQLKAWMGKMQKKAVAISLPKGVVEVTHDLQKHLAGLGLTEAIDKNKADLSRMSGKKDLYLASVFHATAFEWDTEGNPFDQAIYGREELRSPKLFYADHPFIFLVRDNQSGSLLFIGRLVRPKGDKMRDEL
B5: Hsp47-HT, P19324 E356A (protein)
chain: AEVKKPLEAAAPGTAEKLSSKATTLAERSTGLAFSLYQAMAKDQAVENILLSPLVVASSLGLVSLGGKATTASQAKAVLSAEKLRDEEVHTGLGELLRSLSNSTARNVTWKLGSRLYGPSSVSFADDFVRSSKQHYNCEHSKINFRDKRSALQSINEWASQTTDGKLPEVTKDVERTDGALLVNAMFFKPHWDEKFHHKMVDNRGFMVTRSYTVGVTMMHRTGLYNYYDDEKEKLQMVEMPLAHKLSSLIILMPHHVEPLERLEKLLTKEQLKAWMGKMQKKAVAISLPKGVVEVTHDLQKHLAGLGLTEAIDKNKADLSRMSGKKDLYLASVFHATAFEWDTEGNPFDQDIYGRAELRSPKLFYADHPFIFLVRDNQSGSLLFIGRLVRPKGDKMRDEL
B6: Hsp47-HT, P19324 Y353E (protein)
chain: AEVKKPLEAAAPGTAEKLSSKATTLAERSTGLAFSLYQAMAKDQAVENILLSPLVVASSLGLVSLGGKATTASQAKAVLSAEKLRDEEVHTGLGELLRSLSNSTARNVTWKLGSRLYGPSSVSFADDFVRSSKQHYNCEHSKINFRDKRSALQSINEWASQTTDGKLPEVTKDVERTDGALLVNAMFFKPHWDEKFHHKMVDNRGFMVTRSYTVGVTMMHRTGLYNYYDDEKEKLQMVEMPLAHKLSSLIILMPHHVEPLERLEKLLTKEQLKAWMGKMQKKAVAISLPKGVVEVTHDLQKHLAGLGLTEAIDKNKADLSRMSGKKDLYLASVFHATAFEWDTEGNPFDQDIEGREELRSPKLFYADHPFIFLVRDNQSGSLLFIGRLVRPKGDKMRDEL
B7: Hsp47-HT, P19324 Y353R (protein)
chain: AEVKKPLEAAAPGTAEKLSSKATTLAERSTGLAFSLYQAMAKDQAVENILLSPLVVASSLGLVSLGGKATTASQAKAVLSAEKLRDEEVHTGLGELLRSLSNSTARNVTWKLGSRLYGPSSVSFADDFVRSSKQHYNCEHSKINFRDKRSALQSINEWASQTTDGKLPEVTKDVERTDGALLVNAMFFKPHWDEKFHHKMVDNRGFMVTRSYTVGVTMMHRTGLYNYYDDEKEKLQMVEMPLAHKLSSLIILMPHHVEPLERLEKLLTKEQLKAWMGKMQKKAVAISLPKGVVEVTHDLQKHLAGLGLTEAIDKNKADLSRMSGKKDLYLASVFHATAFEWDTEGNPFDQDIRGREELRSPKLFYADHPFIFLVRDNQSGSLLFIGRLVRPKGDKMRDEL
B8: Hsp47-HT, P19324 I352F (protein)
chain: AEVKKPLEAAAPGTAEKLSSKATTLAERSTGLAFSLYQAMAKDQAVENILLSPLVVASSLGLVSLGGKATTASQAKAVLSAEKLRDEEVHTGLGELLRSLSNSTARNVTWKLGSRLYGPSSVSFADDFVRSSKQHYNCEHSKINFRDKRSALQSINEWASQTTDGKLPEVTKDVERTDGALLVNAMFFKPHWDEKFHHKMVDNRGFMVTRSYTVGVTMMHRTGLYNYYDDEKEKLQMVEMPLAHKLSSLIILMPHHVEPLERLEKLLTKEQLKAWMGKMQKKAVAISLPKGVVEVTHDLQKHLAGLGLTEAIDKNKADLSRMSGKKDLYLASVFHATAFEWDTEGNPFDQDFYGREELRSPKLFYADHPFIFLVRDNQSGSLLFIGRLVRPKGDKMRDEL
B9: Hsp47-HT, P19324 I352R (protein)
chain: AEVKKPLEAAAPGTAEKLSSKATTLAERSTGLAFSLYQAMAKDQAVENILLSPLVVASSLGLVSLGGKATTASQAKAVLSAEKLRDEEVHTGLGELLRSLSNSTARNVTWKLGSRLYGPSSVSFADDFVRSSKQHYNCEHSKINFRDKRSALQSINEWASQTTDGKLPEVTKDVERTDGALLVNAMFFKPHWDEKFHHKMVDNRGFMVTRSYTVGVTMMHRTGLYNYYDDEKEKLQMVEMPLAHKLSSLIILMPHHVEPLERLEKLLTKEQLKAWMGKMQKKAVAISLPKGVVEVTHDLQKHLAGLGLTEAIDKNKADLSRMSGKKDLYLASVFHATAFEWDTEGNPFDQDRYGREELRSPKLFYADHPFIFLVRDNQSGSLLFIGRLVRPKGDKMRDEL
B10: Hsp47-HT, P19324 I352L (protein)
chain: AEVKKPLEAAAPGTAEKLSSKATTLAERSTGLAFSLYQAMAKDQAVENILLSPLVVASSLGLVSLGGKATTASQAKAVLSAEKLRDEEVHTGLGELLRSLSNSTARNVTWKLGSRLYGPSSVSFADDFVRSSKQHYNCEHSKINFRDKRSALQSINEWASQTTDGKLPEVTKDVERTDGALLVNAMFFKPHWDEKFHHKMVDNRGFMVTRSYTVGVTMMHRTGLYNYYDDEKEKLQMVEMPLAHKLSSLIILMPHHVEPLERLEKLLTKEQLKAWMGKMQKKAVAISLPKGVVEVTHDLQKHLAGLGLTEAIDKNKADLSRMSGKKDLYLASVFHATAFEWDTEGNPFDQDLYGREELRSPKLFYADHPFIFLVRDNQSGSLLFIGRLVRPKGDKMRDEL
B11: Hsp47-HT, P19324 Y353F (protein)
chain: AEVKKPLEAAAPGTAEKLSSKATTLAERSTGLAFSLYQAMAKDQAVENILLSPLVVASSLGLVSLGGKATTASQAKAVLSAEKLRDEEVHTGLGELLRSLSNSTARNVTWKLGSRLYGPSSVSFADDFVRSSKQHYNCEHSKINFRDKRSALQSINEWASQTTDGKLPEVTKDVERTDGALLVNAMFFKPHWDEKFHHKMVDNRGFMVTRSYTVGVTMMHRTGLYNYYDDEKEKLQMVEMPLAHKLSSLIILMPHHVEPLERLEKLLTKEQLKAWMGKMQKKAVAISLPKGVVEVTHDLQKHLAGLGLTEAIDKNKADLSRMSGKKDLYLASVFHATAFEWDTEGNPFDQDIFGREELRSPKLFYADHPFIFLVRDNQSGSLLFIGRLVRPKGDKMRDEL
B12: Hsp47-HT, P19324 Y353L (protein)
chain: AEVKKPLEAAAPGTAEKLSSKATTLAERSTGLAFSLYQAMAKDQAVENILLSPLVVASSLGLVSLGGKATTASQAKAVLSAEKLRDEEVHTGLGELLRSLSNSTARNVTWKLGSRLYGPSSVSFADDFVRSSKQHYNCEHSKINFRDKRSALQSINEWASQTTDGKLPEVTKDVERTDGALLVNAMFFKPHWDEKFHHKMVDNRGFMVTRSYTVGVTMMHRTGLYNYYDDEKEKLQMVEMPLAHKLSSLIILMPHHVEPLERLEKLLTKEQLKAWMGKMQKKAVAISLPKGVVEVTHDLQKHLAGLGLTEAIDKNKADLSRMSGKKDLYLASVFHATAFEWDTEGNPFDQDILGREELRSPKLFYADHPFIFLVRDNQSGSLLFIGRLVRPKGDKMRDEL
B13: Hsp47-HT, P19324 I352E (protein)
chain: AEVKKPLEAAAPGTAEKLSSKATTLAERSTGLAFSLYQAMAKDQAVENILLSPLVVASSLGLVSLGGKATTASQAKAVLSAEKLRDEEVHTGLGELLRSLSNSTARNVTWKLGSRLYGPSSVSFADDFVRSSKQHYNCEHSKINFRDKRSALQSINEWASQTTDGKLPEVTKDVERTDGALLVNAMFFKPHWDEKFHHKMVDNRGFMVTRSYTVGVTMMHRTGLYNYYDDEKEKLQMVEMPLAHKLSSLIILMPHHVEPLERLEKLLTKEQLKAWMGKMQKKAVAISLPKGVVEVTHDLQKHLAGLGLTEAIDKNKADLSRMSGKKDLYLASVFHATAFEWDTEGNPFDQDEYGREELRSPKLFYADHPFIFLVRDNQSGSLLFIGRLVRPKGDKMRDEL

Molecular target: T1, colFD-NL
T1 chain: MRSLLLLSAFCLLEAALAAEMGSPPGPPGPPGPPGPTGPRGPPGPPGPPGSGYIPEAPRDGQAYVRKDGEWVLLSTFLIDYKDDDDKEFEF
Test: BRET
Conditions: chain shown with the change; in the ER of HEK293 cells; n = 4; parent: est. 100; read off a plot

Going from B1 to B2, the percent of parent rises from 84% to 96%.

B3 and B4 are the same in percent of parent: 100% for the first, 100% for the second.

Work on B5 yielded a percent of parent of 95%.

Molecular target: T1, colFD-NL
Test: BRET
Conditions: chain shown with the change; in the ER of HEK293 cells; n = 4; parent: est. 100; read off a plot
Remark: another data set of the same source

Compared with B1, B6 is lower in percent of parent: 83% for the first, 77% for the second.

Compared with B7, B8 is higher in percent of parent: 74% for the first, 95% for the second.

Compared with B9, B10 is higher in percent of parent: 81% for the first, 92% for the second.

First: B11
Second: B12
The percent of parent of the first is higher: 88% for the first, 82% for the second.

With B13 the percent of parent was 83%.
